According to patent publication US20230407373A1 (priority 2020, published 2023):

B1: RBM15: host protein, UniProt Q96T37 (protein, UniProt Q96T37 1-977, looked up)
RNA-binding protein 15: MRTAGRDPVPRRSPRWRRAVPLCETSAGRRVTQLRGDDLRRPATMKGKERSPVKAKRSRGGEDSTSRGERSKKLGGSGGSNGSSSGKTDSGGGSRRSLHLDKSSSRGGSREYDTGGGSSSSRLHSYSSPSTKNSSGGGESRSSSRGGGGESRSSGAASSAPGGGDGAEYKTLKISELGSQLSDEAVEDGLFHEFKRFGDVSVKISHLSGSGSGDERVAFVNFRRPEDARAAKHARGRLVLYDRPLKIEAVYVSRRRSRSPLDKDTYPPSASVVGASVGGHRHPPGGGGGQRSLSPGGAALGYRDYRLQQLALGRLPPPPPPPLPRDLERERDYPFYERVRPAYSLEPRVGAGAGAAPFREVDEISPEDDQRANRTLFLGNLDITVTESDLRRAFDRFGVITEVDIKRPSRGQTSTYGFLKFENLDMSHRAKLAMSGKIIIRNPIKIGYGKATPTTRLWVGGLGPWVPLAALAREFDRFGTIRTIDYRKGDSWAYIQYESLDAAHAAWTHMRGFPLGGPDRRLRVDFADTEHRYQQQYLQPLPLTHYELVTDAFGHRAPDPLRGARDRTPPLLYRDRDRDLYPDSDWVPPPPPVRERSTRTAATSVPAYEPLDSLDRRRDGWSLDRDRGDRDLPSSRDQPRKRRLPEESGGRHLDRSPESDRPRKRHCAPSPDRSPELSSSRDRYNSDNDRSSRLLLERPSPIRDRRGSLEKSQGDKRDRKNSASAERDRKHRTTAPTEGKSPLKKEDRSDGSAPSTSTASSKLKSPSQKQDGGTAPVASASPKLCLAWQGMLLLKNSNFPSNMHLLQGDLQVASSLLVEGSTGGKVAQLKITQRLRLDQPKLDEVTRRIKVAGPNGYAILLAVPGSSDSRSSSSSAASDTATSTQRPLRNLVSYLKQKQAAGVISLPVGGNKDKENTGVLHAFPPCEFSQQFLDSPAKALAKSEEDYLVMIIVRGFGFQIGVRYENKKRENLALTLL
B2: ATXN2 ? (protein, UniProt Q99700 1-1313, looked up)
Ataxin-2: MRSAAAAPRSPAVATESRRFAAARWPGWRSLQRPARRSGRGGGGAAPGPYPSAAPPPPGPGPPPSRQSSPPSASDCFGSNGNGGGAFRPGSRRLLGLGGPPRPFVVLLLPLASPGAPPAAPTRASPLGARASPPRSGVSLARPAPGCPRPACEPVYGPLTMSLKPQQQQQQQQQQQQQQQQQQQQQQQPPPAAANVRKPGGSGLLASPAAAPSPSSSSVSSSSATAPSSVVAATSGGGRPGLGRGRNSNKGLPQSTISFDGIYANMRMVHILTSVVGSKCEVQVKNGGIYEGVFKTYSPKCDLVLDAAHEKSTESSSGPKREEIMESILFKCSDFVVVQFKDMDSSYAKRDAFTDSAISAKVNGEHKEKDLEPWDAGELTANEELEALENDVSNGWDPNDMFRYNEENYGVVSTYDSSLSSYTVPLERDNSEEFLKREARANQLAEEIESSAQYKARVALENDDRSEEEKYTAVQRNSSEREGHSINTRENKYIPPGQRNREVISWGSGRQNSPRMGQPGSGSMPSRSTSHTSDFNPNSGSDQRVVNGGVPWPSPCPSPSSRPPSRYQSGPNSLPPRAATPTRPPSRPPSRPSRPPSHPSAHGSPAPVSTMPKRMSSEGPPRMSPKAQRHPRNHRVSAGRGSISSGLEFVSHNPPSEAATPPVARTSPSGGTWSSVVSGVPRLSPKTHRPRSPRQNSIGNTPSGPVLASPQAGIIPTEAVAMPIPAASPTPASPASNRAVTPSSEAKDSRLQDQRQNSPAGNKENIKPNETSPSFSKAENKGISPVVSEHRKQIDDLKKFKNDFRLQPSSTSESMDQLLNKNREGEKSRDLIKDKIEPSAKDSFIENSSSNCTSGSSKPNSPSISPSILSNTEHKRGPEVTSQGVQTSSPACKQEKDDKEEKKDAAEQVRKSTLNPNAKEFNPRSFSQPKPSTTPTSPRPQAQPSPSMVGHQQPTPVYTQPVCFAPNMMYPVPVSPGVQPLYPIPMTPMPVNQAKTYRAVPNMPQQRQDQHHQSAMMHPASAAGPPIAATPPAYSTQYVAYSPQQFPNQPLVQHVPHYQSQHPHVYSPVIQGNARMMAPPTHAQPGLVSSSATQYGAHEQTHAMYACPKLPYNKETSPSFYFAISTGSLAQQYAHPNATLHPHTPHPQPSATPTGQQQSQHGGSHPAPSPVQHHQHQAAQALHLASPQQQSAIYHAGLAPTPPSMTPASNTQSPQNSFPAAQQTVFTIHPSHVQPAYTNPPHMAHVPQAHVQSGMVPSHPTAHAPMMLMTTQPPGGPQAALAQSALQPIPVSTTAHFPYMTHPSVQAHHQQQL
B3: MSN (protein, UniProt P26038 2-577, looked up)
Moesin: PKTISVRVTTMDAELEFAIQPNTTGKQLFDQVVKTIGLREVWFFGLQYQDTKGFSTWLKLNKKVTAQDVRKESPLLFKFRAKFYPEDVSEELIQDITQRLFFLQVKEGILNDDIYCPPETAVLLASYAVQSKYGDFNKEVHKSGYLAGDKLLPQRVLEQHKLNKDQWEERIQVWHEEHRGMLREDAVLEYLKIAQDLEMYGVNYFSIKNKKGSELWLGVDALGLNIYEQNDRLTPKIGFPWSEIRNISFNDKKFVIKPIDKKAPDFVFYAPRLRINKRILALCMGNHELYMRRRKPDTIEVQQMKAQAREEKHQKQMERAMLENEKKKREMAEKEKEKIEREKEELMERLKQIEEQTKKAQQELEEQTRRALELEQERKRAQSEAEKLAKERQEAEEAKEALLQASRDQKKTQEQLALEMAELTARISQLEMARQKKESEAVEWQQKAQMVQEDLEKTRAELKTAMSTPHVAEPAENEQDEQDENGAEASADLRADAMAKDRSEEERTTEAEKNERVQKHLKALTSELANARDESKKTANDMIHAENMRLGRDKYKTLRQIRQGNTKQRIDEFESM
B4: SNW1 (protein, UniProt Q13573 2-536, looked up)
SNW domain-containing protein …: ALTSFLPAPTQLSQDQLEAEEKARSQRSRQTSLVSSRREPPPYGYRKGWIPRLLEDFGDGGAFPEIHVAQYPLDMGRKKKMSNALAIQVDSEGKIKYDAIARQGQSKDKVIYSKYTDLVPKEVMNADDPDLQRPDEEAIKEITEKTRVALEKSVSQKVAAAMPVRAADKLAPAQYIRYTPSQQGVAFNSGAKQRVIRMVEMQKDPMEPPRFKINKKIPRGPPSPPAPVMHSPSRKMTVKEQQEWKIPPCISNWKNAKGYTIPLDKRLAADGRGLQTVHINENFAKLAEALYIADRKAREAVEMRAQVERKMAQKEKEKHEEKLREMAQKARERRAGIKTHVEKEDGEARERDEIRHDRRKERQHDRNLSRAAPDKRSKLQRNENRDISEVIALGVPNPRTSNEVQYDQRLFNQSKGMDSGFAGGEDEIYNVYDQAWRGGKDMAQSIYRPSKNLDKDMYGDDLEARIKTNRFVPDKEFSGSDRRQRGREGPVQFEEDPFGLDKFLEEAKQHGGSKRPSDSSRPKEHEHEGKKRRKE
B5: RIAS: host protein, UniProt P31483 (protein, UniProt P31483 1-386, looked up)
Cytotoxic granule associated …: MEDEMPKTLYVGNLSRDVTEALILQLFSQIGPCKNCKMIMDTAGNDPYCFVEFHEHRHAAAALAAMNGRKIMGKEVKVNWATTPSSQKKDTSSSTVVSTQRSQDHFHVFVGDLSPEITTEDIKAAFAPFGRISDARVVKDMATGKSKGYGFVSFFNKWDAENAIQQMGGQWLGGRQIRTNWATRKPPAPKSTYESNTKQLSYDEVVNQSSPSNCTVYCGGVTSGLTEQLMRQTFSPFGQIMEIRVFPDKGYSFVRFNSHESAAHAIVSVNGTTIEGHVVKCYWGKETLDMINPVQQQNQIGYPQPYGQWGQWYGNAQQIGQYMPNGWQVPAYGMYGQAWNQQGFNQTQSSAPWMGPNYGVQPPQGQNGSMLPNQPSGYRVAGYETQ
B6: HNRNPAO: host protein, UniProt Q13151 (protein, UniProt Q13151 1-305, looked up)
Heterogeneous nuclear …: MENSQLCKLFIGGLNVQTSESGLRGHFEAFGTLTDCVVVVNPQTKRSRCFGFVTYSNVEEADAAMAASPHAVDGNTVELKRAVSREDSARPGAHAKVKKLFVGGLKGDVAEGDLIEHFSQFGTVEKAEIIADKQSGKKRGFGFVYFQNHDAADKAAVVKFHPIQGHRVEVKKAVPKEDIYSGGGGGGSRSSRGGRGGRGRGGGRDQNGLSKGGGGGYNSYGGYGGGGGGGYNAYGGGGGGSSYGGSDYGNGFGGFGSYSQHQSSYGPMKSGGGGGGGGSSWGGRSNSGPYRGGYGGGGGYGGSSF
B7: TECR: host protein, UniProt Q9NZ01 (protein, UniProt Q9NZ01 1-308, looked up)
Very-long-chain enoyl-CoA …: MKHYEVEILDAKTREKLCFLDKVEPHATIAEIKNLFTKTHPQWYPARQSLRLDPKGKSLKDEDVLQKLPVGTTATLYFRDLGAQISWVTVFLTEYAGPLFIYLLFYFRVPFIYGHKYDFTSSRHTVVHLACICHSFHYIKRLLETLFVHRFSHGTMPLRNIFKNCTYYWGFAAWMAYYINHPLYTPPTYGAQQVKLALAIFVICQLGNFSIHMALRDLRPAGSKTRKIPYPTKNPFTWLFLLVSCPNYTYEVGSWIGFAIMTQCLPVALFSLVGFTQMTIWAKGKHRSYLKEFRDYPPLRMPIIPFLL

Legend:
HCoV-OC43 gRNA and sgRNA = format: binding
gRNA of HCoV-OC43 = format: binding; details: for target (spectral count) / background (spectral count): type g_36_m, 36 hpi, Probe I; for target (spectral count): HCoV-OC43-infected HCT-8 cells; for background (spectral count): uninfected-probe control; for target (spectral count, OC43 Probe I RNP capture) / background (spectral count, no-probe control): type n_48_v: 48 hours post-infection; for target (spectral count, OC43 Probe I RNP capture): infected cells, unweighted spectral count; for background (spectral count, no-probe control): no-probe control on infected cells

Row | Molecule | target (unweighted spectral count, OC43 Probe II capture) (HCoV-OC43 gRNA and sgRNA; 24 hpi, type n_24_v, tested against no-probe control, FDR<10%) | target (unweighted spectral count, OC43 Probe II) (HCoV-OC43 gRNA and sgRNA; type n_48_v, 48 hpi, OC43 Probe II capture on infected cells) | background (unweighted spectral count, no-probe control) (HCoV-OC43 gRNA and sgRNA; type n_48_v, 48 hpi, no-probe control on infected cells) | target (spectral count) (gRNA of HCoV-OC43) | background (spectral count) (gRNA of HCoV-OC43) | target (spectral count, OC43 Probe I RNP capture) (gRNA of HCoV-OC43) | background (spectral count, no-probe control) (gRNA of HCoV-OC43)
1 | B1 | 5 | 11 | 1 | 9 | 1 | 14 | 1
2 | B2 | – | – | – | – | – | 12 | 1
3 | B3 | – | – | – | – | – | 5 | 1
4 | B4 | – | – | – | – | – | 5 | 1
5 | B5 | – | – | – | 10 | 1 | – | –
6 | B6 | – | – | – | 15 | 2 | – | –
7 | B7 | – | – | – | 9 | 1 | – | –
